{
  "source": "patent US20100291682",
  "about": "“SYSTEM FOR TRANSPOSING HYPERACTIVE RECOMBINANT DERIVATIVES OF MOS-1 TRANSPOSON” (published 2010)",
  "molecules": {"B1": {"name": "ITRSelex SEQ 40 (dsDNA)", "DNA 1": "GCGGGTGTGAAAATATGAAATATTCACT", "DNA 2": "AGTGAATATTTCATATTTTCACACCCGC"}, "B2": {"name": "ITRSelex SEQ 45 (dsDNA)", "DNA 1": "GTCAGTGATGTCACCAACGTATGGAATATCGTAT", "DNA 2": "ATACGATATTCCATACGTTGGTGACATCACTGAC"}, "B3": {"name": "ITRSelex SEQ 41 (dsDNA)", "DNA 1": "GAAGAGTTATAACTCAAGAAAACTGAAT", "DNA 2": "ATTCAGTTTTCTTGAGTTATAACTCTTC"}, "B4": {"name": "ITRSelex SEQ 44 (dsDNA)", "DNA 1": "ATAGTGTTTAAAGCTTACT", "DNA 2": "AGTAAGCTTTAAACACTAT"}, "B5": {"name": "ITRSelex SEQ 42 (dsDNA)", "DNA 1": "CGATTACAATTATGAAAACTTTCCT", "DNA 2": "AGGAAAGTTTTCATAATTGTAATCG"}, "B6": {"name": "ITRSelex SEQ 43 (dsDNA)", "DNA 1": "GGAGAAATGGTAGAATAGTTTA", "DNA 2": "TAAACTATTCTACCATTTCTCC"}},
  "key": {"[1]": {"molecular_target": "T1, MBP-Mos-1 transposase (MBP-Tnp) (Drosophila mauritiana, UniProt Q7JQ07 SEQ:1-345)", "T1 sequence": "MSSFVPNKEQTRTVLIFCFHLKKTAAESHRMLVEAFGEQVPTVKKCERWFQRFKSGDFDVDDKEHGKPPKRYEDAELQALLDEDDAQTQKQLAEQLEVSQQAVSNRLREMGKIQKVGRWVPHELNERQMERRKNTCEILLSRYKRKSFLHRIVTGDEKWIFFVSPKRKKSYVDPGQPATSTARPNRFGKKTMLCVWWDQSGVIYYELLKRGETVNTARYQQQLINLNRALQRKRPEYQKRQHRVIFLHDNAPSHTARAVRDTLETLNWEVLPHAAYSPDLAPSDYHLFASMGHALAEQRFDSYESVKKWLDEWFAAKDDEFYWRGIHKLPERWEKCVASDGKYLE", "details": "active protein (Bmax) versus ITR3'; same Kd as ITR3'; inventors' prior research"}, "[2]": {"molecular_target": "T1, MBP-Mos-1 transposase (MBP-Tnp)", "experiment": "EMSA", "details": "complex stability versus ITR alone; MBP tag assumed"}, "[3]": {"molecular_target": "T1, MBP-Mos-1 transposase (MBP-Tnp)", "experiment": "EMSA; clone number to SEQ mapping not given", "details": "tags: N-terminal MBP (pMalC2x); chain copies: 2"}},
  "note": "Where two headings read alike, the source gives them in different places.",
  "data": [
    {"molecule": "Mos-1 ITR5'", "values": [
      {"measurement": "binding signal", "setting": "[1]", "result": 0.1, "unit": "fold"}
    ]},
    {"molecule": "ITR3'/UTR5'", "values": [
      {"measurement": "binding signal", "setting": "[2]", "result": 4, "unit": "fold"}
    ]},
    {"molecule": "ITR3'/UTR3'", "values": [
      {"measurement": "binding signal", "setting": "[2]", "result": 4, "unit": "fold"}
    ]},
    {"molecule": "B1", "values": [
      {"measurement": "binding result", "setting": "[3]", "result": "binds"}
    ]},
    {"molecule": "B2", "values": [
      {"measurement": "binding result", "setting": "[3]", "result": "binds"}
    ]},
    {"molecule": "B3", "values": [
      {"measurement": "binding result", "setting": "[3]", "result": "binds"}
    ]},
    {"molecule": "B4", "values": [
      {"measurement": "binding result", "setting": "[3]", "result": "binds"}
    ]},
    {"molecule": "B5", "values": [
      {"measurement": "binding result", "setting": "[3]", "result": "binds"}
    ]},
    {"molecule": "B6", "values": [
      {"measurement": "binding result", "setting": "[3]", "result": "binds"}
    ]}
  ]
}
